# Test results published in patent publication EP3971294A1.
# What was measured:
# Experiment in all cases: cell-based or functional assay
# [1] = biological target: CenNLS^GFP: Centauri fragment of superfolder GFP, HA tag, triple SV40 NLS
# [2] = biological target: CenNLS^NLuc: Centauri fragment of NanoLuc, HA tag, triple SV40 NLS
# [3] = biological target: CenNup214^NLuc: Centauri fragment of NanoLuc, HA tag, full-length Nup214 (UniProt P35658)
# Chain of UniProt P35658 (P35658 whole entry, the tested form may be a part): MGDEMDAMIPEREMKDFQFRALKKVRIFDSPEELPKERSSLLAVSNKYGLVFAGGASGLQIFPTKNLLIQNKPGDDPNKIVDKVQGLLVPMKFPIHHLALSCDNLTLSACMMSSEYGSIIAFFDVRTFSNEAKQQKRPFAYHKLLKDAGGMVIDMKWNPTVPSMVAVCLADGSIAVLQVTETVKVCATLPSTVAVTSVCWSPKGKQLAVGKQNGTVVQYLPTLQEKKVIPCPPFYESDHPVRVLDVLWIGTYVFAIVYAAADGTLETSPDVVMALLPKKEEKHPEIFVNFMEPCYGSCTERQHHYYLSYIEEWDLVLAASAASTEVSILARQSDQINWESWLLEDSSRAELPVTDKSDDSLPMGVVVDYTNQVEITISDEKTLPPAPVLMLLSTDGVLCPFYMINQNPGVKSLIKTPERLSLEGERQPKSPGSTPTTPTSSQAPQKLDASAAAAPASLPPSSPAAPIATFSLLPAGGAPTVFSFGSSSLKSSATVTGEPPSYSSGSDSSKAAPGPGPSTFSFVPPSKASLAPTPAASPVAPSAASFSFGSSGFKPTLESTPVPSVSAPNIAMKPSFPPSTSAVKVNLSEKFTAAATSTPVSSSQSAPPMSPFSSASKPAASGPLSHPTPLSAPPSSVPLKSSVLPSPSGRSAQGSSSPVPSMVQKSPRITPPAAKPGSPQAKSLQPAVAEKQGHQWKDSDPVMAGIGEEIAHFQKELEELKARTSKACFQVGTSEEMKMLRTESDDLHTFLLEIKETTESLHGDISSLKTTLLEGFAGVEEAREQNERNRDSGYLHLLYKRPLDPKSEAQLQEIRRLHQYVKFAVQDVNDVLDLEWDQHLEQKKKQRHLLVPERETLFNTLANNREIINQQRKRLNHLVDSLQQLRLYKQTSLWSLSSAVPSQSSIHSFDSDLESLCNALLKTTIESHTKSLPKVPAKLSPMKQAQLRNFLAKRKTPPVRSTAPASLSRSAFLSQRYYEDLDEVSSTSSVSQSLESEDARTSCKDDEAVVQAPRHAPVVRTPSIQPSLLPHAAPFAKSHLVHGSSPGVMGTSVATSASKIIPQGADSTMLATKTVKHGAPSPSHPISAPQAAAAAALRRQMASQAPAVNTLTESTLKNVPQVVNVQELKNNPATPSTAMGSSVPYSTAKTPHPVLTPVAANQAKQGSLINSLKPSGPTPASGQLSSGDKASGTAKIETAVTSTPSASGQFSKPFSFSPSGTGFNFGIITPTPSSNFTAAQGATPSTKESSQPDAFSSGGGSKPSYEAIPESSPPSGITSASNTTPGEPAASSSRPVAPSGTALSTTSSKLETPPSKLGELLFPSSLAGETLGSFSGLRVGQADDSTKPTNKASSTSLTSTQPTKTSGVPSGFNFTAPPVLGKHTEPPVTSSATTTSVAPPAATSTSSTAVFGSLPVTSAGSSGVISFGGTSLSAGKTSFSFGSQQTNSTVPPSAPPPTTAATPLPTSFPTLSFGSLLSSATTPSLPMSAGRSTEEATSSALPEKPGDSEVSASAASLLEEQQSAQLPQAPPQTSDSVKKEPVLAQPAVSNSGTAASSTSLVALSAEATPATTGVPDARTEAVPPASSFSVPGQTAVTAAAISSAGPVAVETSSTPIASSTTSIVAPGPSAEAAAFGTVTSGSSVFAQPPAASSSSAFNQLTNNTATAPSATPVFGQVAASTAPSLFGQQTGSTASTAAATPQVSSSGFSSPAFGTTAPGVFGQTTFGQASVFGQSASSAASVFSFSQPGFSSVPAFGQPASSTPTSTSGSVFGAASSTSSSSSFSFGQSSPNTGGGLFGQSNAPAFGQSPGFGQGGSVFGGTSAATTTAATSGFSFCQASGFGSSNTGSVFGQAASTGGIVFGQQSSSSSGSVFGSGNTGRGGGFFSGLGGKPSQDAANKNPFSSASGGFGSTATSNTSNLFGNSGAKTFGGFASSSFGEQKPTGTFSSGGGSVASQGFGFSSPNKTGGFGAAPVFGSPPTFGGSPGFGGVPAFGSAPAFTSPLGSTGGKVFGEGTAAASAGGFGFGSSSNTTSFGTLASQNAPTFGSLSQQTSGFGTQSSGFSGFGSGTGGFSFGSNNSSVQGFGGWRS
substance,measurement,setting,value
"HIV-1 LAI integrase (IN) with α^GFP fused at its C-terminus, as carried by αHIV^GFP (from UniProt P03367 1160-1447)","fold increase in fluorescence (flow cytometry, 48 hpi)",[1],5 to 10 fold
"HIV-1 LAI integrase D116I mutant with α^NLuc fused at its C-terminus, as carried by αHIV-D116I^NLuc (from UniProt P03367 1160-1447)",fold increase in NLuc compared to infection in the presence of Nevirapine,[2],10 fold
"HIV-1 LAI integrase (IN) with α^NLuc fused at its C-terminus, as carried by αHIV^NLuc (from UniProt P03367 1160-1447)",fold increase in NLuc signal,[3],10 fold
same,fold increase in emitted luminescence signal (plate luminometry),[2],5 to 200 fold
IRF3α-3xFLAG: IRF3 fused to the α fragment of NanoLuc and a 3xFLAG tag (from UniProt Q14653 1-427),"αCentauri complementation, luminescence fold above uninfected controls (SeV infection, 6 h)",[2],3 to 6 fold
